A short description of the series: yeast display, Sf9 membrane polyspecificity reagent, FACS + sequencing; frameworks hold sequencing errors. Put shortly:
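After 36–48 hours of galactose induction, yeast (Saccharomyces cerevisiae BJ5465) displaying a synthetic nanobody library were stained at 4 °C for 1 hour with 10% biotinylated, detergent-solubilized Sf9 membrane reagent. Streptavidin microbeads enriched the stained cells before FACS sorting into low and high (top ~1%) gates on anti-HA and streptavidin fluorescence. Each clone's polyreactivity label reflects its gate of origin.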
For “QVQLVESGGGLVQAGGSLRLSCAASGSIFWLYAMGWYRQAPGKERELVAAIDSGDSTKYADSVKGRFTISRDNAKTTVYLQMNSLKPEDTAVYYCNASRRYHVRAPYDYWGQGTQVTLSS”, the “polyreactivity (PSR sort gate)” value was “low polyreactivity”.
The value for “QVQLVESGGGLVQAGGSLRLSCAASGSIFNINAMGWCRQAPGKDRELVATITSGGTTSYADSVKGRFTISRDNAKNTVYLQMNSLKPEDTAVYYCNAEIYPIVKAGRQHPRRYDYWGQGTQVTVSS” was “low polyreactivity”; that for “QVKLVESGGGLVQEGASLRLSCAASGRIFGNYAMGWYRQAPGKERELVAAIDLSGDSTYYADSVKGRFTISRDNAKNTVYLQMNSLKPEDTAVYYCAATDWFSEYYWGQGTQVTVSS” was “low polyreactivity”.
On to “QVQLVESVGGLVQAGGSLRLSCAASGSNFKYYAMGWYRQAPGKERELVAAITIGGNTNYADSVKGRFTISRDNAKNTVYLQMNSLKPEDTAVYYCATGGYYSAIVYGGYDYWGQGTQVTVSS”, for which the “polyreactivity (PSR sort gate)” value was “low polyreactivity”.
With “QVQLVESGGGLVQAGRSLRLSCAASGITFYKNAMGWYRQAPGKERELVAAISSGGATTYADSVKGRFTISRDNAKNTVYLQMNSLKPEDSAVYYCAAVTRDYRNERRRQRYFYWGQGTQVTVSS”, the “polyreactivity (PSR sort gate)” value is “high polyreactivity”.
As to “QVQLVESGGGLVQAGGSLRLSCAASACTFNVNAMGWYRQEAGKERELVAAITNGGITNYADSVKGRFTISRDNAKNTVYLQMNSLKPEDTAVYDCAARTIYKTQSPRPFRRGYWGQGTQVTVSS”, the “polyreactivity (PSR sort gate)” value is recorded as “high polyreactivity”.
Then “HVQLVETGGGLVQAGGSLRLSCAASGRIFYPYPMGWYRQAPRKERELLARISWGGGATYYADSVKGRFTISRDNAQNTVFLQMNSLKPEDTAVYYCAASYVGYWYRRGYGYWGQGTQVTVSS”, with “high polyreactivity”; and “QVQLQESGGGLVQAGGSLRLSCAASGYIPLAQTIGSYRQAPGKEREFVASIALGSSTYYTDSVKGSFTISRDNAKTTVYLQMNSLKPEDTAVYYCAARVGACYAHDYWGQGTQVTVSS”, with “low polyreactivity”; and “QVQLQESGGGLVQAGGSLRLSCAASGSISGPHVMGWYRQAPGKEREFVAAINVGANTYYADNVKGRFTISRDNAINTVYLQMNSLKTEDTAVYYCAAVYYGDIGHEYWGQGTQVTVSC”, with “low polyreactivity”.
Then “QVQLVESGGGLVQAGGSLRLSCAASGFIIAYYAMGWYRQAPGKERELVAAISRRGGSTYYADSVKGRFTISRDNAKNTVYLQMNSLKPEDTAVYYCAKAHYLSDYNYWGQGTQVTVSS”, with “high polyreactivity”; and “QVQLVESGGGLVQAGGSLRLSCAASGITFSSYAMGWYRQAPGKERELVAGITRRGGITYYADSVKGRFTISRDNAKNTVYLQMNSLKPEDTAVYYCAATHRFRTGSPDGGYGYWGQGTQVTVSS”, with “high polyreactivity”; and “QVQLVESGGGLVQAGGSLRLSCAASGFIFGGYAMGWYRQAPGKERELVAAISRSGGSTYYADSVKGRFTISRDNAKNTVDLQINSLKPEDTAVYYCYAVTRRQGFNYWGQGTQVTVSS”, with “high polyreactivity”.
Then “QVHLVESGGGLVQAGGSLRLICAAYRRTLGGNAMGWYRQAPGKERELVAPITHSASTYADSVKGRFTISRDNAKNTVYLQMNSLKPEDTAVYYCNAPDPSDQHGDYWGQGTQVTVSS”, with “low polyreactivity”.
Regarding “QVQLVESGGGLVQAGGSLSFSCAASGFIFRAYTMGWYRQAPGKERELVAAITSSGGRTYYADSVKGRFTISRDNAKNSVYLQMNSLKPEDTAVYYCATVYAKWKQFDYWGQGTQVTVSS”, the “polyreactivity (PSR sort gate)” value was “high polyreactivity”.
As for “QVQLVESGGGLVQAGGSLRLSCAASGRIFSLYAMGWYRQAPGKERELVATMDSNGGSTYYADSVKGRFTISRDNAKNTVYLQMNSLKPEDTAVYYCAAERYVRVWVAGILHYDYWGQGTQVTVSS”, the “polyreactivity (PSR sort gate)” value is “low polyreactivity”.
The value for “QVQLVESGGGLFQAGGSLRLSCAASGSTFRANAMGWYRQAPGKETELVAAISQSGGITYYADSVKVRFTISRDNAKNTVYLQMKSLKPEDTAVYYCAALGYRIIRGRFYSWGQGTQVTVSS” was “high polyreactivity”; that for “QVQLVESGGGLVQAGVSLRISCAASGGTLNGYAMGWYRQSPGKERELVAVITSGGSTNYADSVKGLFTISRDNAKNTVYLQMNSLKPEDTAVYYCAVRPYELHRLADQPGGDDYWGQGTQVTVSS” was “low polyreactivity”.
Then “QVQLVESGGGLVQAGGSLRLICAASGSTFYSYTMGWYRPAPGKERELVARISSSGSTNYADSVKGRFTISRYNAKNTVYLQMNSLKPEDTAVYYCNKDWFYRGYDYWGQGTQVTVSS”, with “high polyreactivity”.
For “QDQLVESRGGLVQAGGRLRLSCAASGSIFASNTIGWYRQAPGKEREVVAGITKIGSSTYYADSVKGRFTISRDNAKNTVYLQMNSLKPEDTAVYYCNAYGPNIYSARYDYWGQGTQVTVSS”, the “polyreactivity (PSR sort gate)” value is recorded as “low polyreactivity”.
The value for “QVQLVESRGGLVQAGGSHRLSCAASGITILQYAMGWYRQAPRKERELVAAISRRGGNTYYADSVKGRFTISRDNAKNTVYLQMNSLKPEDTAVYYCAALSSFQSEYDYWGQGTQLTVSS” was “high polyreactivity”.
The value for “QVQLVESGGGLVQAGGSLRLSCAASGSIFTPYAMVWYRQAPGKERELVATISWRGGSTYADSVKGRFTISRDNAKNTVYLQMNSLKPEDTAVYYCNKEYTFSLYDYWGQGSQVTVSS” was “low polyreactivity”; that for “QVQLVESGGGLVQAGGSLRLSSAASGRTFQYYAMGWYRQAPGKERELVAAIDSSGGSTYYADSVKGRFTISRDNAKNTVYLQMNSLKPEDTAVYYCIAGRYRYYYYGYDYWGQGTQVTVSS” was “high polyreactivity”.
As to “QVQLEESAGGLVQAGGSLRLSCAASGYTFGRYAMGWYRQEPGKERELVAVITTGDSTYYADSVKGRFTISRDNAKNTVNLLMNSLKPEDTAVYYCAADGRLSRPFDYWGQGTQVTVSS”, the “polyreactivity (PSR sort gate)” value is on record as “low polyreactivity”.
Consider “QVQLVESGGGVVQAGGSLRLSCAASGRTFSYNALGWNRQAPGKEREVVAAINGDGGSTYYADSVKGRFTSSRDNAKNTVYLQMNSLKPEDTAVYYCNRRGIYRYGYWGQGTEVTVSS”, for which the “polyreactivity (PSR sort gate)” value is “high polyreactivity”.
Regarding “QVQLVESGLGIVQAGGSLRVSCAASGSTISNYAMGWYRHAPGKERELVAAITSGGTTNYADSVKGRFTISRDNAKNTVYFQMNSLIPEDTAVYYCAKRYSYHVPTHLWVEYYYWGQGTQVTVSS”, the “polyreactivity (PSR sort gate)” value was “low polyreactivity”.
Take “QVQLVESGGGLVQAGGSLRLSCAASGSIFESYAMGWYRQAPGKERELVADITYDGGITYYADSVKGRFTISRDNAKNTVYLQMNSLKPEDTADYYCNADSVQYTPPESDYWGQGTQVTVSS”: the “polyreactivity (PSR sort gate)” value is on record as “low polyreactivity”.
The value for “QVQLVESGGGLVQAGGSLRLSCAASGSIFAWYAMGWYRPAPGKEWELVAVITRGGSTNYADSLKGRFTISRDNAKNTVYLQMNSLKPEDTAVKYCAAGSYYSWYPFDYWGQGTQVTVSS” was “low polyreactivity”; that for “QVQLVESGGGLVQAGGSLRLSCAASGFTFAGYAMGWYRQAPGKEMELVAAINYRGVRTYYADSVKGRFTISRDNSKNTVYLQMNSLIPEDTAVYYCAALPFLPGGGYVIHRFYYWGQGSQVTVSS” was “high polyreactivity”; that for “QVQLVESGGGLVHAGGSLLLSCAASGRTFRTYTMGLYRQAPGKERELVAVITWTGGSTYYADSVKGRFTISRDNAKNTVYIQMNSLKPEDTAVYYCAARIITFSNVYNGYEYWGQGTQVTVSS” was “high polyreactivity”.
Turning to “QVQLVESGGGLVQAGGSLRLSCAASGRTFKYYAMGWYRQAPGKERELVAGITSGSSTSYADSVKGRFTISRDNAKITVYLQMNSLKPEDTAVYFCAAGIYQYRYDYWGQGTQVTVSS”, the “polyreactivity (PSR sort gate)” value is given as “high polyreactivity”.
Then “QVQLVESGGGLVQAGGSLRLSCAASGLTFYVNARGWYRQAPGKERELVATISGSGSTNYADSVKGRFTISRDNAKNTVYLQMNSLKPEDTAVYDCNAGWAQDPSNYWGQGTQVTVSS”, with “high polyreactivity”; and “QVQLVESGGGLVQAGGSLRLSCAASGRIFYRNAMGWYRQAPAKERELVAAISWSGGRTYYADSVKGRFTISRDNAKNTVYLQMNSLKPEDTAVYYCNARTGYYTGQYDYWGQGTQVTVSS”, with “high polyreactivity”.
Turning to “QVQLQESGGGKVHAGGSLRLSCAASGSISYASGMVWYRQAPGKEREFVASIDPGAITNYADSVKGRFTNSHDNAKNTVYLQMNSLKPEDTAVYYCAARVSTTDSHGYWGQGTQVTVSS”, the “polyreactivity (PSR sort gate)” value is “high polyreactivity”.
Then “QVQLVESGGGLVQAGGSLRLSCAASGSIFPDYAMGWYRQAPGKERELVAGISSNSGSTYYADSVKGRFTISRDNAKNTVYLQMTSLKPEDTAVYYCAKDSFWRDTGYTDGDYWGQGTQVTVSS”, with “low polyreactivity”.
Then “QVQLLESGGGLVQAGGSLRLSCAAAGIIFGYYTMGWYRQAPGNERELVAAITTTGGSTYYADSVKGRCTISRDNAKNTVYLQMNSLKPEDTAVYYCAARKWSHRTISDYWGQGTQVTVSS”, with “high polyreactivity”.
As to “QVQLVESGGGLVQAGGSLRLSCAASGSNFYPYTMGWYRQAPGKERELVAAISGGGRTYYADSVKGRFTISRDNAKNTVFLQMNSLNPEDTAVYYCAARYVYRWLVGKYEYWGQGTQVTLSS”, the “polyreactivity (PSR sort gate)” value is listed as “high polyreactivity”.
The value for “QVQLVESGGGLVQAGGSLRLSCAASGFTFNRYAMGWYRQAPGKERELVAAISARGGITYYADSVKGRFTISRDNAKNTVYLQMNSLKPEDTAVYYCNKRYSSWSGEHDYWGQGTQVTVSS” was “high polyreactivity”; that for “QVQLVESGGGLVQAGGSLRLSCAASGIIFDYNAMGWYRQAPGKERELVAAITSTDNTNYADSVKGRFTISRDNAKNTVYLQMNSLKPEDTAVYYCNTDYLLCVVYAMDYCGQGTQVTVSS” was “low polyreactivity”; that for “QVQLVESGGGLVQAGGSLRLSCAASGRIFSLYAMGWYRQAPGKERELVAAISWSGGTTYYADSVKGRFTISRDNAKNTVYLQMNSLKPEDTAVYYCAADTGTGLDWGQGSQVTVSS” was “high polyreactivity”.
Take “QVQLVESGGGLVQAGGSLRLSCAASGFIFAYYAMGWYRQAPGKERELVAAITIDGSTNYADSVKGRFTISRDNAKNTVYLQMNSLKPEDTAVYYCAAADHPPVWYGYWGQGTQVTVSS”: the “polyreactivity (PSR sort gate)” value is “low polyreactivity”.
The value for “QVQIVESGGGLVQAGGSLSLICAASGFIIDDNTMGWYRQAPGKERELVAAISYSAGSTYYADSVKGRFTISRDNAKNTVFLQMISVKTEDTAVYYCAAQHYWVTSYLSSYDYWGQGTQVTVSS” was “low polyreactivity”.

The values above are taken from the nanobody polyreactivity screen of Harvey et al. (2022).
